The source of these data is article doi:10.1101/2024.05.24.595734 (bioRxiv, 2024).

By Kd is commonly meant the constant that tells how readily two partners part at equilibrium. The low end stands for tighter binding, the high end for weaker binding.

Data set [1] addresses PrfA^WT (Listeria monocytogenes virulence master regulator PrfA) (Listeria monocytogenes) (UniProt P22262). As to the kind of experiment: ITC. In general terms: Isothermal titration calorimetry measures the heat released or taken up as one component is titrated into another.
Data set [2] deals with the molecule itself. Put plainly: crystal structure.

tripeptide EVF registered a dissociation constant (Kd) in data set [1] of 12 µM.

B1: tetrapeptide EVFL (peptide)
peptide: EVFL
In data set [1], B1 had a Kd of 15 µM.

B2: tetrapeptide STLL (peptide)
peptide: STLL
In data set [1], B2 yielded a Kd of 32 µM.

B3: PrfA^WT (Listeria monocytogenes virulence master regulator PrfA) (natural protein)
chain: GAMNAQAEEFKKYLETNGIKPKQFHKKELIFNQWDPQEYCIFLYDGITKLTSISENGTIMNLQYYKGAFVIMSGFIDTETSVGYYNLEVISEQATAYVIKINELKELLSKNLTHFFYVFQTLQKQVSYSLAKFNDFSINGKLGSICGQLLILTYVYGKETPDGIKITLDNLTMQELGYSSGIAHSSAVSRIISKLKQEKVIVYKNSCFYVQNLDYLKRYAPKLDEWFYLACPATWGKLN
Consider B3, for which the binding result in data set [2] is on record as “binds”.

B4: tetrapeptide RGLL (peptide)
peptide: RGLL
In the case of B4, in data set [1], the Kd was determined as 145 µM.
